According to US20240101687A1:
Where a chain is given by its changes, count along the chain named.

B1: Hu3A9-C04 (bispecific antibody, part only; not given: Hu3A9 heavy and light chains, part only)
heavy, part: GGGGSGGGGSGGGGSQSVLTQPPSASGTPGQRVTISCTGSSSNIGSNDVSWYQQLPGTAPKLLIYANSNRPSGVPDRFSGSKSGTSASLAISGLRSEDEADYYCGAWEQWLNGYVFGCGTKLTVLGGGGSGGGGSGGGGSGGGGSEVQLLESGGGLVQPGGSLRLSCAASGFTFSSYDMSWVRQAPGKLEWVSAISYDNGNTYYADSVKGRFTISRDNSKNTLYLQMNSLRAEDTAVYYCAKGVLTTLMNWFDYWGQGTLVTVSS
B2: Hu3A9-1564 (bispecific antibody, part only; not given: Hu3A9 heavy and light chains, part only)
heavy, part: GGGGSGGGGSGGGGSQSVLTQPPSASGTPGQRVTISCTGSSSNIGSNDVSWYQQLPGTAPKLLIYANSNRPSGVPDRFSGSKSGTSASLAISGLRSEDEADYYCGAWDDSLNGYVFGCGTKLTVLGGGGSGGGGSGGGGSGGGGSEVQLLESGGGLVQPGGSLRLSCAASGFTFSSYDMSWVRQAPGKCLEWVSAISYDNGNTYYADSVKGRFTISRDNSKNTLYLQMNSLRAEDTAVYYCAKGVLTTLMNWFDYWGQGTLVTVSS
B3: hu3A9 × 1564_F06 (bispecific antibody, part only; not given: hu3A9 heavy and light chains, part only)
heavy, part: B2 heavy, part with A106T, D108A, D109G
B4: Hu3A9-E09 (bispecific antibody, part only; not given: Hu3A9 heavy and light chains, part only)
heavy, part: B2 heavy, part with P75S, C118G, C189G, Y198W, D199G, N200Q, N202K
B5: Hu3A9-B01 (bispecific antibody, part only; not given: Hu3A9 heavy and light chains, part only)
heavy, part: B2 heavy, part with P75S, C118G, C189G, Y198W, N200K, G201A, N202Q, T203P
B6: Hu3A9-A02 (bispecific antibody, part only; not given: Hu3A9 heavy and light chains, part only)
heavy, part: B2 heavy, part with P75S, D109T, S110T, C118G, C189G
B7: Hu3A9-B10 (bispecific antibody, part only; not given: Hu3A9 heavy and light chains, part only)
heavy, part: B2 heavy, part with P75S, A106S, D109V, C118G, C189G

The binders below were run against human IGF1R on cells (human) (UniProt P08069) (assay: FACS on MCF-7 cells (2nd Ab only: 2.92)).

**Q.** For B1, which GEOmean is on record?
**A.** 3.88

The binders below were run against human IGF1R on cells (human) (UniProt P08069) (assay: FACS on MCF-7 cells, 10 ug/mL (2nd Ab only: 2.86)).

**Q.** How did the GeoMean, Internalization at 37° C. turn out when B1 was run?
**A.** 7.23

**Q.** B2 was tested. Which GeoMean, Internalization at 37° C. did it give?
**A.** 7.72

**Q.** B3 was tested. Which GeoMean, Internalization at 37° C. did it give?
**A.** 19.8

What follows are binders tested against human IGF1R extracellular domain, His-tagged (human) (UniProt P08069) (assay: ELISA on ECD of IGF1R).

**Q.** Which EC50 does the source give for B1 here?
**A.** 107 pM

**Q.** B2 was tested. Which EC50 did it give?
**A.** 144 pM

**Q.** With B4 as the binder, how does the EC50 read?
**A.** 159 pM

**Q.** How did the EC50 turn out when B5 was run?
**A.** 145 pM

**Q.** Which EC50 does the source give for B6 here?
**A.** 130 pM

**Q.** With B7 as the binder, how does the EC50 read?
**A.** 156 pM
